Data from PMC9704693.

Target: extracellular fragment of lymphotoxin-beta receptor (LTβR) (629-LR-100, R&D Systems) (UniProt P36941)
Assay: SPR

Ixodes persulcatus salivary protein (IpSAP), recombinant (natural protein)
Kd: 0.124 µM
